The values that follow come from US20090264359A1, “FPLR-1 INHIBITORS FOR USE IN DISEASES INVOLVING AMYLOID-INDUCED INFLAMMATORY EVENTS (FLIPR AND FLIPR-LIKE) AND IMMUNECOMPLEX-[…] DISEASES” (published 2009).

For assay [1], the target named is FPR on human neutrophils and monocytes (human, UniProt P21462). Kind of assay: cell-based or functional assay.
For assay [2], the target named is FcγRs on human neutrophils and peripheral blood monocytes.

B1: FLIPr-like (other)
chain: FFSYEWKGLEIAKNLADQAKKDDERADKLIKEADEKNEHYKGKTVEDLYVIAKKMGKGNTIAVVKIKDGGKNGYYTFDITRPLEEHRKNIPVVKNGEIDSITWY
modifications: FITC label in the flow cytometric binding assays (FLIPr-like-FITC); unlabelled elsewhere
Take B1: the “FPR blocking activity (fMLF-induced activation of neutrophils)” value in assay [1] was approximately 100 fold. This molecule also registered a minimal effective concentration in phagocytosis by human neutrophils in assay [2] of 0.19 µg/mL.
